Data taken from patent US8178324B2, “Deracemisation of amines” (Ingenza Limited, priority 2002, dated 2012).

How the values were obtained:
Type in all cases: biochemical
[1] = Specific activity of the purified MAO mutant active fraction against amylamine; conditions: active fraction after QSepharose, protein 1 mg·ml^−1
Experimental: LB medium (6×300 ml) containing ampicillin (100 μg·ml^−1) in 1 L baffled flasks was inoculated with a single colony of monoamine oxidase mutant from an LB agar plate. Cultures were incubated at 30° C. for 22 hours (OD600˜3.6) then harvested and washed with phosphate buffer (50 mM, pH 8) to yield a yellow-brown pellet (11.2 g).
The pellet was resuspended in Tris/HCl buffer (25 mM, pH 7.8, 30 ml) and sonicated on ice (30 s on, 30 s off for 10 minutes). The suspension was then centrifuged (20,000 rpm, 4° C.) until clear supernatant was obtained and the supernatant dialysed against Tris/HCl buffer (25 mM, pH 7.8). The cell free extract was filtered through 0.45 μm sterile membrane and chromatographed on a QSepharose anion exchange column. Fractions were assayed using colorimetric hydrogen peroxide based assay and active fractions were stored at −80° C. The active fraction has a protein content of 1 mg·ml^−1, and a specific activity of 0.193 U·mg^−1 against amylamine. […]
The spectrophotometer was blanked against assay mixture and HRP. Enzyme was added and the absorbance at 500 nm measured at 3 s intervals for a 10 minute period.

[2] = Specific activities of partially purified MAO WT and MAOArg259/260 towards amylamine
Experimental: MAO WT and MAOArg259/260 were partially purified from recombinant E. coli BL21(DE3) harbouring a pET16b carrying the corresponding mao-n gene. Cell free extracts were prepared by sonication and the specific activities of MAO WT and MAOArg259/260 towards AA were measured for both the soluble and insoluble fractions. (Table 3)

[3] = Cell free extracts assayed towards L-AMBA; conditions: 240 minutes
Experimental: To 895 ul Assay Mixture was Added: • 5 μl HRP (Sigma, P6782) (1 mg/ml)
Sample (100 μl) was added and absorbance at 510 nm measured after 24 hours against a control without sample.
This was achieved by incubating 50 μl of each sample for 240 minutes and specific activities were determined. (Table 4)

B1: MAO mutant: A. niger monoamine oxidase variant with serine replacing asparagine at position 336 (SEQ ID NO: 2) (protein)
chain: MTSRDGYQWTPETGLTQGVPSLGVISPPTNIEDTDKDGPWDVIVIGGGYCGLTATRDLTVAGFKTLLLEARDRIGGRSWSSNIDGYPYEMGGTWVHWHQSHVWREITRYKMHNALSPSFNFSRGVNHFQLRTNPTTSTYMTHEAEDELLRSALHKFTNVDGTNGRTVLPFPHDMFYVPEFRKYDEMSYSERIDQIRDELSLNERSSLEAFILLCSGGTLENSSFGEFLHWWAMSGYTYQGCMDCLISYKFKDGQSAFARRFWEEAAGTGRLGYVFGCPVRSVVNERDAARVTARDGREFVAKRVVCTIPLNVLSTIQFSPALSTERISAMQAGHVSMCTKVHAEVDNMDMRSWTGIAYPFNKLCYAIGDGTTPAGNTHLVCFGTDANHIQPDEDVRETLKAVGQLAPGTFGVKRLVFHNWVKDEFAKGAWFFSRPGMVSECLQGLREKHGGVVFANSDWALGWRSFIDGAIEEGTRAARVVLEELGTKREVKARL
modifications: Variant monoamine oxidase enzyme generated by direct evolution
With B1 the “specific activity against amylamine” value [1] was 0.193 U·mg^−1.

B2: MAO WT: wild-type Aspergillus niger monoamine oxidase (SEQ ID NO:1) expressed in E. coli BL21(DE3) (protein)
chain: MTSRDGYQWTPETGLTQGVPSLGVISPPTNIEDTDKDGPWDVIVIGGGYCGLTATRDLTVAGFKTLLLEARDRIGGRSWSSNIDGYPYEMGGTWVHWHQSHVWREITRYKMHNALSPSFNFSRGVNHFQLRTNPTTSTYMTHEAEDELLRSALHKFTNVDGTNGRTVLPFPHDMFYVPEFRKYDEMSYSERIDQIRDELSLNERSSLEAFILLCSGGTLENSSFGEFLHWWAMSGYTYQGCMDCLISYKFKDGQSAFARRFWEEAAGTGRLGYVFGCPVRSVVNERDAARVTARDGREFVAKRVVCTIPLNVLSTIQFSPALSTERISAMQAGHVNMCTKVHAEVDNMDMRSWTGIAYPFNKLCYAIGDGTTPAGNTHLVCFGTDANHIQPDEDVRETLKAVGQLAPGTFGVKRLVFHNWVKDEFAKGAWFFSRPGMVSECLQGLREKHGGVVFANSDWALGWRSFIDGAIEEGTRAARVVLEELGTKREVKARL
modifications: Aspergillus niger
With B2 the Total activity [2] was 0.57 U, the “Insoluble fraction specific activity” value ([2]; insoluble fraction) was 0.33 U · mg^−1 and the “Soluble fraction specific activity” value ([2]; soluble fraction) was 0.23 U · mg^−1. The “ΔAbs 510 nm” value ([3]; 50 μl sample) was 0.06 and the “Soluble fraction specific activity” value [3] was 3.6 × 10^−5 U · mg^−1.
